Laboratory results as given in patent US7927849B2, “Laccase enzyme and use thereof” (AB Enzymes OY, priority 2004, dated 2011).

Columns and labels:
[1] = Denim bleaching: laccase-mediator (100 nkat/g, 5 mg/g, 30 min, 60° C.) compared to sodium hypochlorite (15 min, 40° C.)
Description: Different types of demin were treated with a TaLcc1 laccase product from Trichoderma strain RF5597 and DeniLite II Base from Novozymes and the results obtained were compared to hypochlorite bleaching. All together 27 pieces of different kinds of denim (whole jeans), which had been previously washed with cellulase after desizing to different abrasion levels or had been only desized with ECOSTONE®A200 (60° C., 10 min), were collected for the test (Table 15). The jeans were made of Indigo dyed denim, except the English jeans contained Indigo dyed denim with sulphur bottom. Jeans were cut in such a way that pieces from the same pair of jeans could be used for all tests.
The jeans were made of Indigo dyed denim (right hand twill), except the English jeans contained Indigo dyed denim with sulphur bottom. The weights of the original (i.e. not desized) denim fabrics were typically higher than 475 g/m^2 (14 oz/yd^2). The weights of three 10 cm×10 cm pieces were measured after 24 hours incubation at room temperature (ca. 22° C. and at relative moisture ca. 64%).
The laccase treatments were performed with Electrolux's Wascator FOM 71 CLS washer extractor under optimal conditions for each enzyme, described in Table 16. Methyl syringate (Example 7) was used as a mediator. Laccase was inactivated after draining by raising the pH above 11 by NaOH (10 min, 60° C.) and rinsing for three times. The fabrics were dried in a tumbler.
The sodium hypochlorite bleaching was performed with Electrolux's Wascator FOM 71 CLS washer extractor using denim obtained from the same jeans as in laccase treatments under conditions described in Table 17. Sodium hydroxide was added before adding 25 ml/l of 10% sodium hypochlorite solution (Klorite Forte, Farmos Oy) to keep the pH above 10.5 during the treatment. After draining the bleach liquor, there was one 2 minutes rinsing step with the liquor ratio of 1:20 before dechlorinating with sodium thiosulphate. After dechlorinating the denim samples were rinsed 3 times for 2 minutes with the liquor ratio of 1:20. The fabrics were dried in a tumbler.
The bleaching effect was evaluated by measuring the colour as reflectance values as in Example 7. […] Different looks were obtained depending on the type of the denim and cellulase treatment used. “Sulphur-bottom type” denim was the most difficult to bleach.

Decolorization of dyes = assay: Decolorization of dyes; parameters: key to Decolorization of Indigocarmine, Time 30 min / Decolorization of Indigocarmine, Time 90 min: −: no visually detectable change; +: visually detectable fading of the colour; ++: considerable fading of the colour; +++: complete/almost complete decolorization; settings: 50° C., pH 6; for Decolorization of Indigocarmine, Time 30 min / Decolorization of Indigocarmine, Time 90 min: dye 12 mg/100 ml
Description: The TaLcc1 laccase preparation from strain RF5597 was tested for its ability to decolourize different dyes in the presence or absence of the methyl syringate mediator (Example 7). The experiments were carried out in 250 ml shake flasks containing 100 ml of dye dissolved in citrate phosphate buffer pH 6. Dye concentration 12 mg/100 ml was used. Enzyme was dosed 200 nkat (or 20 nkat) per 100 ml and the mediator 10 (or 1) mg per 100 ml. The shake flasks were incubated at 50° C. for 30, 90 and 150 minutes. Samples of 3.5 ml were taken in test tubes for visual evaluation.

[2] = Specific activity on syringaldazine; format: biochemical; settings: 25 mM MES buffer, pH 5.5
Description: (§1) Specific activities of the purified Thielavia laccase were determined towards different laccase substrates.

Specific activity on DMP = format: biochemical; settings: 25 mM MES buffer, pH 5.5
Description: as §1

[3] = all cellulase treated denim samples
[4] = sample B1: Basic Jeans, Ecostone P1250
[5] = sample E1: English jeans (sulphur bottom), desized only
[6] = sample E2: English jeans, Ecostone NP2000
[7] = sample E3: English jeans, Rocksoft NCE-EA
[8] = sample E4: English jeans, Rocksoft NCE-2X
[9] = sample E5: English jeans, Ecostone L900
[10] = sample E6: English jeans, Ecostone L900
[11] = sample E7: English jeans, Ecostone L900
[12] = sample L1: Lee Cooper jeans, desized only
[13] = sample L2: Lee Cooper jeans, Ecostone L
[14] = sample L3: Lee Cooper jeans, Biotouch C29
[15] = sample L4: Lee Cooper jeans, Ecostone L
[16] = sample L5: Lee Cooper jeans, Indiage Max L
[17] = sample L6: Lee Cooper jeans, Indiage Super L
[18] = sample L7: Lee Cooper jeans, Ecostone CXP500 Exper.
[19] = sample L8: Lee Cooper jeans, Ecostone CXP experimental
[20] = sample L9: Lee Cooper jeans, Ecostone N400
[21] = sample T1: Tincan jeans, desized only
[22] = sample T2: Tincan jeans, Ecostone N400
[23] = sample T3: Tincan jeans, Ecostone L300
[24] = sample T4: Tincan jeans, Denimax 991S
[25] = sample W1: Warric jeans, desized only
[26] = sample W2: Warric jeans, Ecostone P4500
[27] = sample W3: Warric jeans, Indiage Max G
[28] = sample W4: Warric jeans, Ecostone NP2000
[29] = sample W5: Warric jeans, Ecostone L900
[30] = sample W6: Warric jeans, Denabraide MBL 65 E
[31] = enzyme 20 nkat/100 ml, mediator 1 mg/100 ml
[32] = enzyme 200 nkat/100 ml, mediator 0 mg/100 ml
[33] = enzyme 200 nkat/100 ml, mediator 10 mg/100 ml

B1: TaLcc1: Recombinant Thielavia arenaria ALKO4197 laccase 1 (SEQ ID NO: 12) produced in Trichoderma reesei strains RF5597/RF5598 (protein)
chain: MKSWAAAVALMVGILSPHAAAAPPANPVQRDMLQVLEARQSGPTCNTPSNRACWTNGFDINTDYEVSTPNTGRTVAYQLTLTEKENWIGPDGVLKNVVMLVNDKIIGPTIRANWGDNIEVTVINNLKTNGTSMHWHGLRQLGNVFNDGANGVTECPIPPKGGRKTYKFRATQYGTSWYHSHFSAQYGNGVVGTIQIDGPASLPYDIDLGVFPLMDYYYRSADELVHFTQSNGAPPSDNVLFNGTARHPETGAGQWYNVTLTPGKRHRLRIINTSTDNHFQVSLVGHNMTVIATDMVPVNAFTVSSLFLAVGQRYDVTIDANSPVGNYWFNVTFGDGLCGSSNNKFPAAIFRYQGAPATLPTDQGLPVPNHMCLDNLNLTPVVTRSAPVNNFVKRPSNTLGVTLDIGGTPLFVWKVNGSAINVDWGKPILDYVMSGNTSYPVSDNIVQVDAVDQWTYWLIENDPTNPIVSLPHPMHLHGHDFLVLGRSPDELPSAGVRHIFDPAKDLPRLKGNNPVRRDVTMLPAGGWLLLAFKTDNPGAWLFHCHIAWHVSGGLSVDFLERPNDLRTQLNSNAKRADRDDFNRVCREWNAYWPTNPFPKIDSGLRHRFVEESEWMVR
modifications: Thielavia arenaria ALKO4197; (1)..(617) Deduced amino acid sequence of Thielavia arenaria ALKO4197 laccase 1 (Ta Lcc1)
- bleaching better than DeniLite II Base [1, 3]: 55-200%
- bleaching better than sodium hypochlorite [1, 3]: 60-115%
- increase of L* better than DeniLite II Base ([1]; fabrics only desized): over 100%
- increase of L* compared with sodium hypochlorite ([1]; fabrics only desized): equal or better
- Increase of L* [1, 4]: 17.71
- L* after treatment [1, 4]: 47.19
- b* after treatment [1, 4]: −12.75
- Increase of L* [1, 5]: 5.24
- L* after treatment [1, 5]: 22.71
- b* after treatment [1, 5]: −13.97
- Increase of L* [1, 6]: 10.51
- L* after treatment [1, 6]: 35.99
- b* after treatment [1, 6]: −14.08
- Increase of L* [1, 7]: 11.26
- L* after treatment [1, 7]: 36.52
- b* after treatment [1, 7]: −14.46
- Increase of L* [1, 8]: 11.75
- L* after treatment [1, 8]: 38.79
- b* after treatment [1, 8]: −13.94
- Increase of L* [1, 9]: 12.34
- L* after treatment [1, 9]: 37.53
- b* after treatment [1, 9]: −14.03
- Increase of L* [1, 10]: 11.63
- L* after treatment [1, 10]: 34.17
- b* after treatment [1, 10]: −14.79
- Increase of L* [1, 11]: 13.16
- L* after treatment [1, 11]: 36.00
- b* after treatment [1, 11]: −14.95
- Increase of L* [1, 12]: 12.92
- L* after treatment [1, 12]: 33.13
- b* after treatment [1, 12]: −19.41
- Increase of L* [1, 13]: 19.08
- L* after treatment [1, 13]: 50.89
- b* after treatment [1, 13]: −13.17
- Increase of L* [1, 14]: 19.21
- L* after treatment [1, 14]: 47.66
- b* after treatment [1, 14]: −14.82
- Increase of L* [1, 15]: 18.97
- L* after treatment [1, 15]: 48.39
- b* after treatment [1, 15]: −13.83
- Increase of L* [1, 16]: 19.24
- L* after treatment [1, 16]: 47.73
- b* after treatment [1, 16]: −14.28
- Increase of L* [1, 17]: 17.17
- L* after treatment [1, 17]: 46.71
- b* after treatment [1, 17]: −14.68
- Increase of L* [1, 18]: 15.75
- L* after treatment [1, 18]: 42.95
- b* after treatment [1, 18]: −16.23
- Increase of L* [1, 19]: 17.27
- L* after treatment [1, 19]: 46.73
- b* after treatment [1, 19]: −14.86
- Increase of L* [1, 20]: 16.22
- L* after treatment [1, 20]: 45.02
- b* after treatment [1, 20]: −14.91
- Increase of L* [1, 21]: 9.80
- L* after treatment [1, 21]: 34.82
- b* after treatment [1, 21]: −16.36
- Increase of L* [1, 22]: 14.50
- L* after treatment [1, 22]: 42.70
- b* after treatment [1, 22]: −14.60
- Increase of L* [1, 23]: 18.01
- L* after treatment [1, 23]: 47.09
- b* after treatment [1, 23]: −14.04
- Increase of L* [1, 24]: 16.37
- L* after treatment [1, 24]: 43.53
- b* after treatment [1, 24]: −15.18
- Increase of L* [1, 25]: 10.51
- L* after treatment [1, 25]: 28.54
- b* after treatment [1, 25]: −17.55
- Increase of L* [1, 26]: 16.04
- L* after treatment [1, 26]: 42.16
- b* after treatment [1, 26]: −14.48
- Increase of L* [1, 27]: 15.53
- L* after treatment [1, 27]: 44.08
- b* after treatment [1, 27]: −13.66
- Increase of L* [1, 28]: 13.32
- L* after treatment [1, 28]: 39.54
- b* after treatment [1, 28]: −14.72
- Increase of L* [1, 29]: 16.52
- L* after treatment [1, 29]: 40.49
- b* after treatment [1, 29]: −15.38
- Increase of L* [1, 30]: 15.57
- L* after treatment [1, 30]: 39.58
- b* after treatment [1, 30]: −15.62
- Decolorization of Indigocarmine, Time 30 min (Decolorization of dyes; [31]): +
- Decolorization of Indigocarmine, Time 90 min (Decolorization of dyes; [31]): +++
- Decolorization of Indigocarmine, Time 30 min (Decolorization of dyes; [32]): −
- Decolorization of Indigocarmine, Time 90 min (Decolorization of dyes; [32]): −
- Decolorization of Indigocarmine, Time 30 min (Decolorization of dyes; [33]): +++
- Decolorization of Indigocarmine, Time 90 min (Decolorization of dyes; [33]): +++
- time until blue colour of Indigocarmine had turned to light yellow (Decolorization of dyes; in the presence of the mediator): < 30 min
- Specific activity on syringaldazine [2]: 340 nkat/mg
- Specific activity on DMP (Specific activity on DMP): 285 nkat/mg
